B1: BBSome complex member BBS4 (Homo sapiens), Q96RK4 (parent)
chain: MAEERVATRTQFPVSTESQKPRQKKAPEFPILEKQNWLIHLHYIRKDYEACKAVIKEQLQETQGLCEYAIYVQALIFRLEGNIQESLELFQTCAVLSPQSADNLKQVARSLFLLGKHKAAIEVYNEAAKLNQKDWEISHNLGVCYIYLKQFNKAQDQLHNALNLNRHDLTYIMLGKIHLLEGDLDKAIEVYKKAVEFSPENTELLTTLGLLYLQLGIYQKAFEHLGNALTYDPTNYKAILAAGSMMQTHGDFDVALTKYRVVACAVPESPPLWNNIGMCFFGKKKYVAAISCLKRANYLAPFDWKILYNLGLVHLTMQQYASAFHFLSAAINFQPKMGELYMLLAVALTNLEDIENAKRAYAEAVHLDKCNPLVNLNYAVLLYNQGEKKNALAQYQEMEKKVSLLKDNSSLEFDSEMVEMAQKLGAALQVGEALVWTKPVKDPKSKHQTTSTSKPASFQQPLGSNQALGQAMSSAAAYRTLPSGAGGTSQFTKPPSLPLEPEPAVESSPTETSEQIREK
partner: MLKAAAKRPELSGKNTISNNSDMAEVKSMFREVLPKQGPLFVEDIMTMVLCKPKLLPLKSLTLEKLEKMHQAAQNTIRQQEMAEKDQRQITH

Variants of: B1
Conditions: with bbip1_human BBIP1, A8MTZ0

| effect of a mutation on the interaction | Variant |
| --- | --- |
| with no effect | MAEERVATRTQFPVSTESQKPRQKKAPEFPILEKQNWLIHLHYIRKDYEACKAVIKEQLQETQGLCEYAIYVQALIFRLEGNIQESLELFQTCAVLSPQSADNLKQVARSLFLLGKHKAAIEVYNEAAKLNQKDWEISHNLGVCYIYLKQFNKAQDQLHNALNLNRHDLTYIMLGKIHLLEGDLDKAIEVYKKAVEFSPENTELLTTLGLLYLQLGIYQKAFEHLGNALTYDPTNYKAILAAGSMMQTHGDFDVALTKYRVVACAVPESPPLWNNIGMCFFGKKKYVAAISCLKRANYLAPFDWKILYNLGLVHLTMQQYASAFHFLSAAINFQPKMGELYMLLAVALTNLEDIENAKRAYAEAVHLDKCNPLVNLNYAVLLYNQGEKKNALAQYQEMEKKVSLLKDNSSLEFDSEMVEMAQKLGAALQVGEALVWTKPVKDPKSKHQTTSTSKPASFQQPLGSNQALGQAMSSAAAYRTLPSGAGGTEQFTKPPSLPLEPEPAVESSPTETSEQIREK [S489E] |
| with no effect | MAEERVATRTQFPVSTESQKPRQKKAPEFPILEKQNWLIHLHYIRKDYEACKAVIKEQLQETQGLCEYAIYVQALIFRLEGNIQESLELFQTCAVLSPQSADNLKQVARSLFLLGKHKAAIEVYNEAAKLNQKDWEISHNLGVCYIYLKQFNKAQDQLHNALNLNRHDLTYIMLGKIHLLEGDLDKAIEVYKKAVEFSPENTELLTTLGLLYLQLGIYQKAFEHLGNALTYDPTNYKAILAAGSMMQTHGDFDVALTKYRVVACAVPESPPLWNNIGMCFFGKKKYVAAISCLKRANYLAPFDWKILYNLGLVHLTMQQYASAFHFLSAAINFQPKMGELYMLLAVALTNLEDIENAKRAYAEAVHLDKCNPLVNLNYAVLLYNQGEKKNALAQYQEMEKKVSLLKDNSSLEFDSEMVEMAQKLGAALQVGEALVWTKPVKDPKSKHQTTSTSKPASFQQPLGSNQALGQAMSSAAAYRTLPSGAGGTKQFTKPPSLPLEPEPAVESSPTETSEQIREK [S489K] |
| with no effect | MAEERVATRTQFPVSTESQKPRQKKAPEFPILEKQNWLIHLHYIRKDYEACKAVIKEQLQETQGLCEYAIYVQALIFRLEGNIQESLELFQTCAVLSPQSADNLKQVARSLFLLGKHKAAIEVYNEAAKLNQKDWEISHNLGVCYIYLKQFNKAQDQLHNALNLNRHDLTYIMLGKIHLLEGDLDKAIEVYKKAVEFSPENTELLTTLGLLYLQLGIYQKAFEHLGNALTYDPTNYKAILAAGSMMQTHGDFDVALTKYRVVACAVPESPPLWNNIGMCFFGKKKYVAAISCLKRANYLAPFDWKILYNLGLVHLTMQQYASAFHFLSAAINFQPKMGELYMLLAVALTNLEDIENAKRAYAEAVHLDKCNPLVNLNYAVLLYNQGEKKNALAQYQEMEKKVSLLKDNSSLEFDSEMVEMAQKLGAALQVGEALVWTKPVKDPKSKHQTTSTSKPASFQQPLGSNQALGQAMSSAAAYRTLPSGAGGTAQFTKPPSLPLEPEPAVESSPTETSEQIREK [S489A] |
| with no effect | MAEERVATRTQFPVSTESQKPRQKKAPEFPILEKQNWLIHLHYIRKDYEACKAVIKEQLQETQGLCEYAIYVQALIFRLEGNIQESLELFQTCAVLSPQSADNLKQVARSLFLLGKHKAAIEVYNEAAKLNQKDWEISHNLGVCYIYLKQFNKAQDQLHNALNLNRHDLTYIMLGKIHLLEGDLDKAIEVYKKAVEFSPENTELLTTLGLLYLQLGIYQKAFEHLGNALTYDPTNYKAILAAGSMMQTHGDFDVALTKYRVVACAVPESPPLWNNIGMCFFGKKKYVAAISCLKRANYLAPFDWKILYNLGLVHLTMQQYASAFHFLSAAINFQPKMGELYMLLAVALTNLEDIENAKRAYAEAVHLDKCNPLVNLNYAVLLYNQGEKKNALAQYQEMEKKVSLLKDNSSLEFDSEMVEMAQKLGAALQVGEALVWTKPVKDPKSKHQTTSTSKPASFQQPLGSNQALGQAMSSAAAYRTLPSGAGGESQFTKPPSLPLEPEPAVESSPTETSEQIREK [T488E] |
| with no effect | MAEERVATRTQFPVSTESQKPRQKKAPEFPILEKQNWLIHLHYIRKDYEACKAVIKEQLQETQGLCEYAIYVQALIFRLEGNIQESLELFQTCAVLSPQSADNLKQVARSLFLLGKHKAAIEVYNEAAKLNQKDWEISHNLGVCYIYLKQFNKAQDQLHNALNLNRHDLTYIMLGKIHLLEGDLDKAIEVYKKAVEFSPENTELLTTLGLLYLQLGIYQKAFEHLGNALTYDPTNYKAILAAGSMMQTHGDFDVALTKYRVVACAVPESPPLWNNIGMCFFGKKKYVAAISCLKRANYLAPFDWKILYNLGLVHLTMQQYASAFHFLSAAINFQPKMGELYMLLAVALTNLEDIENAKRAYAEAVHLDKCNPLVNLNYAVLLYNQGEKKNALAQYQEMEKKVSLLKDNSSLEFDSEMVEMAQKLGAALQVGEALVWTKPVKDPKSKHQTTSTSKPASFQQPLGSNQALGQAMSSAAAYRTLPSGAGGASQFTKPPSLPLEPEPAVESSPTETSEQIREK [T488A] |
| with no effect | MAEERVATRTQFPVSTESQKPRQKKAPEFPILEKQNWLIHLHYIRKDYEACKAVIKEQLQETQGLCEYAIYVQALIFRLEGNIQESLELFQTCAVLSPQSADNLKQVARSLFLLGKHKAAIEVYNEAAKLNQKDWEISHNLGVCYIYLKQFNKAQDQLHNALNLNRHDLTYIMLGKIHLLEGDLDKAIEVYKKAVEFSPENTELLTTLGLLYLQLGIYQKAFEHLGNALTYDPTNYKAILAAGSMMQTHGDFDVALTKYRVVACAVPESPPLWNNIGMCFFGKKKYVAAISCLKRANYLAPFDWKILYNLGLVHLTMQQYASAFHFLSAAINFQPKMGELYMLLAVALTNLEDIENAKRAYAEAVHLDKCNPLVNLNYAVLLYNQGEKKNALAQYQEMEKKVSLLKDNSSLEFDSEMVEMAQKLGAALQVGEALVWTKPVKDPKSKHQTTSTSKPASFQQPLGSNQALGQAMSSAAAYRTLPSGAGGKSQFTKPPSLPLEPEPAVESSPTETSEQIREK [T488K] |
| with no effect | MAEERVATRTQFPVSTESQKPRQKKAPEFPILEKQNWLIHLHYIRKDYEACKAVIKEQLQETQGLCEYAIYVQALIFRLEGNIQESLELFQTCAVLSPQSADNLKQVARSLFLLGKHKAAIEVYNEAAKLNQKDWEISHNLGVCYIYLKQFNKAQDQLHNALNLNRHDLTYIMLGKIHLLEGDLDKAIEVYKKAVEFSPENTELLTTLGLLYLQLGIYQKAFEHLGNALTYDPTNYKAILAAGSMMQTHGDFDVALTKYRVVACAVPESPPLWNNIGMCFFGKKKYVAAISCLKRANYLAPFDWKILYNLGLVHLTMQQYASAFHFLSAAINFQPKMGELYMLLAVALTNLEDIENAKRAYAEAVHLDKCNPLVNLNYAVLLYNQGEKKNALAQYQEMEKKVSLLKDNSSLEFDSEMVEMAQKLGAALQVGEALVWTKPVKDPKSKHQTTSTSKPASFQQPLGSNQALGQAMSSAAAYRTLPSGAGGTSEFTKPPSLPLEPEPAVESSPTETSEQIREK [Q490E] |
| with no effect | MAEERVATRTQFPVSTESQKPRQKKAPEFPILEKQNWLIHLHYIRKDYEACKAVIKEQLQETQGLCEYAIYVQALIFRLEGNIQESLELFQTCAVLSPQSADNLKQVARSLFLLGKHKAAIEVYNEAAKLNQKDWEISHNLGVCYIYLKQFNKAQDQLHNALNLNRHDLTYIMLGKIHLLEGDLDKAIEVYKKAVEFSPENTELLTTLGLLYLQLGIYQKAFEHLGNALTYDPTNYKAILAAGSMMQTHGDFDVALTKYRVVACAVPESPPLWNNIGMCFFGKKKYVAAISCLKRANYLAPFDWKILYNLGLVHLTMQQYASAFHFLSAAINFQPKMGELYMLLAVALTNLEDIENAKRAYAEAVHLDKCNPLVNLNYAVLLYNQGEKKNALAQYQEMEKKVSLLKDNSSLEFDSEMVEMAQKLGAALQVGEALVWTKPVKDPKSKHQTTSTSKPASFQQPLGSNQALGQAMSSAAAYRTLPSGAGGTSAFTKPPSLPLEPEPAVESSPTETSEQIREK [Q490A] |
| with no effect | MAEERVATRTQFPVSTESQKPRQKKAPEFPILEKQNWLIHLHYIRKDYEACKAVIKEQLQETQGLCEYAIYVQALIFRLEGNIQESLELFQTCAVLSPQSADNLKQVARSLFLLGKHKAAIEVYNEAAKLNQKDWEISHNLGVCYIYLKQFNKAQDQLHNALNLNRHDLTYIMLGKIHLLEGDLDKAIEVYKKAVEFSPENTELLTTLGLLYLQLGIYQKAFEHLGNALTYDPTNYKAILAAGSMMQTHGDFDVALTKYRVVACAVPESPPLWNNIGMCFFGKKKYVAAISCLKRANYLAPFDWKILYNLGLVHLTMQQYASAFHFLSAAINFQPKMGELYMLLAVALTNLEDIENAKRAYAEAVHLDKCNPLVNLNYAVLLYNQGEKKNALAQYQEMEKKVSLLKDNSSLEFDSEMVEMAQKLGAALQVGEALVWTKPVKDPKSKHQTTSTSKPASFQQPLGSNQALGQAMSSAAAYRTLPSGAGGTSKFTKPPSLPLEPEPAVESSPTETSEQIREK [Q490K] |
| with no effect | MAEERVATRTQFPVSTESQKPRQKKAPEFPILEKQNWLIHLHYIRKDYEACKAVIKEQLQETQGLCEYAIYVQALIFRLEGNIQESLELFQTCAVLSPQSADNLKQVARSLFLLGKHKAAIEVYNEAAKLNQKDWEISHNLGVCYIYLKQFNKAQDQLHNALNLNRHDLTYIMLGKIHLLEGDLDKAIEVYKKAVEFSPENTELLTTLGLLYLQLGIYQKAFEHLGNALTYDPTNYKAILAAGSMMQTHGDFDVALTKYRVVACAVPESPPLWNNIGMCFFGKKKYVAAISCLKRANYLAPFDWKILYNLGLVHLTMQQYASAFHFLSAAINFQPKMGELYMLLAVALTNLEDIENAKRAYAEAVHLDKCNPLVNLNYAVLLYNQGEKKNALAQYQEMEKKVSLLKDNSSLEFDSEMVEMAQKLGAALQVGEALVWTKPVKDPKSKHQTTSTSKPASFQQPLGSNQALGQAMSSAAAYRTLPSGAGGTSQETKPPSLPLEPEPAVESSPTETSEQIREK [F491E] |
| with no effect | MAEERVATRTQFPVSTESQKPRQKKAPEFPILEKQNWLIHLHYIRKDYEACKAVIKEQLQETQGLCEYAIYVQALIFRLEGNIQESLELFQTCAVLSPQSADNLKQVARSLFLLGKHKAAIEVYNEAAKLNQKDWEISHNLGVCYIYLKQFNKAQDQLHNALNLNRHDLTYIMLGKIHLLEGDLDKAIEVYKKAVEFSPENTELLTTLGLLYLQLGIYQKAFEHLGNALTYDPTNYKAILAAGSMMQTHGDFDVALTKYRVVACAVPESPPLWNNIGMCFFGKKKYVAAISCLKRANYLAPFDWKILYNLGLVHLTMQQYASAFHFLSAAINFQPKMGELYMLLAVALTNLEDIENAKRAYAEAVHLDKCNPLVNLNYAVLLYNQGEKKNALAQYQEMEKKVSLLKDNSSLEFDSEMVEMAQKLGAALQVGEALVWTKPVKDPKSKHQTTSTSKPASFQQPLGSNQALGQAMSSAAAYRTLPSGAGGTSQATKPPSLPLEPEPAVESSPTETSEQIREK [F491A] |
| with no effect | MAEERVATRTQFPVSTESQKPRQKKAPEFPILEKQNWLIHLHYIRKDYEACKAVIKEQLQETQGLCEYAIYVQALIFRLEGNIQESLELFQTCAVLSPQSADNLKQVARSLFLLGKHKAAIEVYNEAAKLNQKDWEISHNLGVCYIYLKQFNKAQDQLHNALNLNRHDLTYIMLGKIHLLEGDLDKAIEVYKKAVEFSPENTELLTTLGLLYLQLGIYQKAFEHLGNALTYDPTNYKAILAAGSMMQTHGDFDVALTKYRVVACAVPESPPLWNNIGMCFFGKKKYVAAISCLKRANYLAPFDWKILYNLGLVHLTMQQYASAFHFLSAAINFQPKMGELYMLLAVALTNLEDIENAKRAYAEAVHLDKCNPLVNLNYAVLLYNQGEKKNALAQYQEMEKKVSLLKDNSSLEFDSEMVEMAQKLGAALQVGEALVWTKPVKDPKSKHQTTSTSKPASFQQPLGSNQALGQAMSSAAAYRTLPSGAGKTSQFTKPPSLPLEPEPAVESSPTETSEQIREK [G487K] |
